In PMC10698503, “Phosphatase specificity principles uncovered by MRBLE:Dephos and global substrate identification” (Molecular Systems Biology, 2023):

How the values were obtained:
Venus-B55 = experiment: Affinity purification (pulldown) of YFP/Venus-B55 from mitotic cells, label-free LC-MS/MS; format: binding, human; details: for log2 ratio [Venus-B55/Venus]: enrichment in Venus-B55 pulldown over Venus control, from 3 replicates each; for log2 IBAQ [Venus-B55 1] / log2 IBAQ [Venus-B55 2] / log2 IBAQ [Venus-B55 3]: pulldown of Venus-B55 from mitotic cells, label-free LC-MS/MS, log2 IBAQ of co-purified protein; for log2 IBAQ [Venus-B55 1]: replicate 1; for log2 IBAQ [Venus-B55 2]: replicate 2; for log2 IBAQ [Venus-B55 3]: replicate 3
Excerpt: (§1) We defined interactomes of PP1γ and B55α during mitosis using affinity purification of YFP‐tagged subunits and also proximity‐dependent ligation using miniTurbo to capture interactions at mitotic exit (Appendix Fig S8) (Branon et al, [2018]; Sears et al, [2019]). […] These identified proteins can constitute both regulators and substrates. […] To understand how these protein interactions might shape dephosphorylation, we first aimed at generating interactome networks and overlay regulated sites. We integrated interactomes and information from the STRING database (Szklarczyk et al, [2023]) with our regulated phosphorylation sites to generate a network of complexes and dephosphorylation sites (Fig 4C and Appendix Fig S9A). For PP1, we also integrated information on known and predicted RVxF motifs (Smith et al, [2019]). […] As an example, CASC5 (KNL1) could scaffold PP1 dephosphorylation of CENPC S261, a phosphorylation site in a nuclear localization sequence. In agreement with previous work, PP2A‐B55 regulated dephosphorylation of several nucleoporins at mitotic exit consistent with Nup153 and TPR being present in the interactomes (Cundell et al, [2016]).
(§2) PP1 and B55 cDNAs were cloned into modified versions of pcDNA5/FRT/TO (Invitrogen) to make N‐terminal fusions to YFP, BioID, or TurboID. Stable cell lines were generated into HeLa/FRT/TRex cells (kind gift from S. Taylor), and for YFP affinity, purification cells were synchronized with thymidine and released into nocodazole‐containing media to arrest them in mitosis. Cells were resuspended in lysis buffer (50 mM NaCl, 50 mM Tris 7,4, 1 mM EDTA, 0.1% NP40, 1 mM DTT, and protease inhibitor cocktail), and following sonication, the lysate was clarified by centrifugation. Cell lysate was incubated with GFP‐Trap beads (Chromotek) for 1 h, washed 3 × 1 ml with lysis buffer, and resuspended in SDS–PAGE loading buffer.
(§3) The Q‐Exactive Plus was set to perform an Orbitrap MS1 scan (R = 70 K; AGC target = 1e6) from 350 to 1,500 m/z, followed by HCD MS2 spectra on the 10 most abundant precursor ions detected by Orbitrap scanning (R = 17.5 K; AGC target = 1e5; max ion time = 50 ms) before repeating the cycle. Precursor ions were isolated for HCD by quadrupole isolation at width = 1 m/z and HCD fragmentation at 26 normalized collision energy (NCE). Charge state 2, 3, and 4 ions were selected for MS2. Precursor ions were added to a dynamic exclusion list ± 20 ppm for 15 s. […] Static modifications included carbamidomethylcysteine and variable modifications included oxidized methionine. […] Missing values were imputed from a normal distribution in Perseus to enable statistical analysis and visualization by volcano plot (Tyanova et al, [2016]). Statistical analysis was carried out in Perseus by two‐tailed Student's t‐test.

Venus-PP1 = experiment: Affinity purification (pulldown) of YFP/Venus-PP1 from mitotic cells, label-free LC-MS/MS; format: binding, human; details: for B55 or PP1?: assignment of the co-purified protein as interactor of Venus-B55 and/or Venus-PP1 (both pulldowns); for log2 ratio [Venus-PP1/Venus]: enrichment in Venus-PP1 pulldown over Venus control, from 3 replicates each; for log2 IBAQ [Venus-PP1 1] / log2 IBAQ [Venus-PP1 2] / log2 IBAQ [Venus-PP1 3]: pulldown of Venus-PP1 from mitotic cells, label-free LC-MS/MS, log2 IBAQ of co-purified protein; for log2 IBAQ [Venus-PP1 1]: replicate 1; for log2 IBAQ [Venus-PP1 2]: replicate 2; for log2 IBAQ [Venus-PP1 3]: replicate 3
Excerpt: as §1, §2, §3

Molecule | log2 ratio [Venus-B55/Venus] (Venus-B55) | log2 IBAQ [Venus-B55 1] (Venus-B55) | log2 IBAQ [Venus-B55 2] (Venus-B55) | log2 IBAQ [Venus-B55 3] (Venus-B55) | B55 or PP1? (Venus-PP1) | log2 ratio [Venus-PP1/Venus] (Venus-PP1) | log2 IBAQ [Venus-PP1 1] (Venus-PP1) | log2 IBAQ [Venus-PP1 2] (Venus-PP1) | log2 IBAQ [Venus-PP1 3] (Venus-PP1)
SF01_HUMAN (protein, UniProt Q15637 2-639, looked up) Splicing factor 1: ATGANATPLDFPSKKRKRSRWNQDTMEQKTVIPGMPTVIPPGLTREQERAYIVQLQIEDLTRKLRTGDLGIPPNPEDRSPSPEPIYNSEGKRLNTREFRTRKKLEEERHNLITEMVALNPDFKPPADYKPPATRVSDKVMIPQDEYPEINFVGLLIGPRGNTLKNIEKECNAKIMIRGKGSVKEGKVGRKDGQMLPGEDEPLHALVTANTMENVKKAVEQIRNILKQGIETPEDQNDLRKMQLRELARLNGTLREDDNRILRPWQSSETRSITNTTVCTKCGGAGHIASDCKFQRPGDPQSAQDKARMDKEYLSLMAELGEAPVPASVGSTSGPATTPLASAPRPAAPANNPPPPSLMSTTQSRPPWMNSGPSESRPYHGMHGGGPGGPGGGPHSFPHPLPSLTGGHGGHPMQHNPNGPPPPWMQPPPPPMNQGPHPPGHHGPPPMDQYLGSTPVGSGVYRLHQGKGMMPPPPMGMMPPPPPPPSGQPPPPPSGPLPPWQQQQQQPPPPPPPSSSMASSTPLPWQQNTTTTTTSAGTGSIPPWQQQQAAAAASPGAPQMQGNPTMVPLPPGVQPPLPPGAPPPPPPPPPGSAGMMYAPPPPPPPPMDPSNFVTMMGMGVAGMPPFGMPPAPPPPPPQN | 3.74 | 18.20 | 19.35 | 19.45 | B55/PP1 | 4.15 | 19.13 | 19.69 | 20.57
EBP2_HUMAN (protein, UniProt Q99848 1-306, looked up) Probable rRNA-processing …: MDTPPLSDSESESDESLVTDRELQDAFSRGLLKPGLNVVLEGPKKAVNDVNGLKQCLAEFKRDLEWVERLDVTLGPVPEIGGSEAPAPQNKDQKAVDPEDDFQREMSFYRQAQAAVLAVLPRLHQLKVPTKRPTDYFAEMAKSDLQMQKIRQKLQTKQAAMERSEKAKQLRALRKYGKKVQTEVLQKRQQEKAHMMNAIKKYQKGFSDKLDFLEGDQKPLAQRKKAGAKGQQMRKGPSAKRRYKNQKFGFGGKKKGSKWNTRESYDDVSSFRAKTAHGRGLKRPGKKGSNKRPGKRTREKMKNRTH | 1.82 | 20.14 | 18.75 | 20.44 | B55/PP1 | 6.44 | 24.17 | 24.63 | 27.56
GAR1_HUMAN (protein, UniProt Q9NY12 1-217, looked up) H/ACA ribonucleoprotein …: MSFRGGGRGGFNRGGGGGGFNRGGSSNHFRGGGGGGGGGNFRGGGRGGFGRGGGRGGFNKGQDQGPPERVVLLGEFLHPCEDDIVCKCTTDENKVPYFNAPVYLENKEQIGKVDEIFGQLRDFYFSVKLSENMKASSFKKLQKFYIDPYKLLPLQRFLPRPPGEKGPPRGGGRGGRGGGRGGGGRGGGRGGGFRGGRGGGGGGFRGGRGGGFRGRGH | 3.89 | 18.68 | 18.13 | 17.35 | B55/PP1 | 5.49 | 19.45 | 19.86 | 24.60
